These results are taken from patent publication US20250282885A1 (VST BIO, published 2025).

Where a chain is given by its changes, count along the chain named.

For assay [1], the target named is T1, human Sdc2 (human, UniProt P34741 19-144, limits assumed).
T1 construct: Antigen of the Octet tandem binning, loaded on biosensors at 100 nM; also called huSdc2; hSdc2
As to the kind of experiment: Octet tandem binning; saturating Ab f11 19838-20-H19-A. On the procedure: (§1) These studies were performed in a tandem binning assay format with human Sdc2, used as the antigen (concentration of 100 nM). Antigen loaded biosensors were dipped in a saturating solution of antibody (25 μg/ml) for 240 seconds followed by a competing antibody at 5 μg/ml for 180 seconds. […] Since saturation is not possible to achieve saturation with these clones, they are removed in as ligands, but retained in the analyte orientation in the analysis. A table summarizing the results of epitope binning of the 18 antibodies against huSdc2 is illustrated in FIG. 30. Data is normalized, where the raw binding signal from Competing Ab for a given Saturating Ab is divided by binding in the absence a […] (“buffer”). The threshold determining the matrix color is adjustable and dependent upon Ag-Ab binding. […] Table rows are based on similar looking binding profiles. Note that the coloration/cutoff is subjective, yellow color added to represent injections with ambiguous or very weak sandwiching signals. FIG. 31 illustrates a clustergram of the epitope binning studies, which was generated from the normalized binning data by importation into the statistical computing program R (The R Project for Statistical Computing: at r-project.org) and generation of a clustergram with the pvclust package.

Assay [2] addresses T1, human Sdc2. The assay can be described thus: Octet tandem binning; saturating Ab m6 19838-20H19-AA (marked non-binding ligand). On the procedure: as §1
The target of assay [3] is T1, human Sdc2. The assay can be described thus: Octet tandem binning; saturating Ab m8 19844-R4M-P1-B01 (marked non-binding ligand). On the procedure: as §1
Assay [4] concerns the target T1, human Sdc2. The assay can be described thus: Octet tandem binning; saturating Ab m7 19844-R3-P1-E07. As to the method:
as §1

Assay [5] concerns the target T1, human Sdc2. As to the kind of experiment: Octet tandem binning; saturating Ab f6 19844-R3-P3-E09. As to the method: as §1
The target in assay [6] is T1, human Sdc2. As to the kind of experiment: Octet tandem binning; saturating Ab m2 19838-8G17-A. As to the method: as §1
Assay [7] has as its target T1, human Sdc2. The assay can be described thus: Octet tandem binning; saturating Ab m5 19844-R4M-P3-A12 (row boxed, self-self >0.09). As to the method:
as §1

Assay [8] has as its target T1, human Sdc2. The assay can be described thus: Octet tandem binning; saturating Ab m4 19844-R4M-P1-A10. On the procedure: as §1
Assay [9] concerns the target T1, human Sdc2. As to the kind of experiment: Kd (human Sdc2), summary table of the mAbs.
Assay [10] deals with T1, human Sdc2. The assay can be described thus: Octet tandem binning; saturating Ab f5 19844-R4M-P3-E06. On the procedure: as §1
The target in assay [11] is T1, human Sdc2. The assay can be described thus: Octet tandem binning; Buffer in place of a saturating Ab. As to the method:
as §1

Assay [12] concerns the target T1, human Sdc2. The assay can be described thus: Octet tandem binning; saturating Ab f8 19844-R4M-P2-C02. As to the method: as §1
For assay [13], the target named is T1, human Sdc2. The assay can be described thus: Octet tandem binning; saturating Ab m3 19844-R3-P1-C02 (row boxed, self-self >0.09). On the procedure:
as §1

Assay [14] concerns the target T1, human Sdc2. As to the kind of experiment: Octet tandem binning; saturating Ab m1 19838-20H19-AB. As to the method:
as §1

Assay [15] concerns the target T1, human Sdc2. The assay can be described thus: Octet tandem binning; saturating Ab f10 19838-10-I12-A. On the procedure:
as §1

Assay [16] concerns the target T1, human Sdc2. The assay can be described thus: Octet tandem binning; saturating Ab f7 19844-R3-P3-A12. As to the method:
as §1

In assay [17] the target is T1, human Sdc2. The assay can be described thus: Octet tandem binning; saturating Ab f4 19844-R3-P3-C11. As to the method: as §1
For assay [18], the target named is T1, human Sdc2. The assay can be described thus: Octet tandem binning; saturating Ab f12 19838-6-N03-A. As to the method: as §1
Assay [19] addresses T1, human Sdc2. The assay can be described thus: Octet tandem binning; saturating Ab f9 19838-6-E17-A. On the procedure:
as §1

Assay [20] deals with human Sdc2 on Human Umbilical Vein Endothelial Cells (HUVEC) (human, UniProt P34741 19-201). The assay can be described thus: cell-based or functional assay.
Sequence of human Sdc2 on Human Umbilical Vein Endothelial Cells (HUVEC) (P34741 19-201 limits assumed): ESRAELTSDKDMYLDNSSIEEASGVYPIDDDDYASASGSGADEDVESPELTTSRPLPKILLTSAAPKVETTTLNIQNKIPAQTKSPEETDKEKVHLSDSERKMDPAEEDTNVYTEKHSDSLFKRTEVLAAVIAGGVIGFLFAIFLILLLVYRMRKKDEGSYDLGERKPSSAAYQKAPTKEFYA
The target of assay [21] is T1, human Sdc2. The assay can be described thus: Octet tandem binning; saturating Ab f3 19838-6N03-A. As to the method:
as §1

Assay [22] has as its target T1, human Sdc2. As to the kind of experiment: Octet BLI, HIS1K sensor loaded with hSdc2, antibody as sample; Full R2 0.9248.
Assay [23] has as its target T1, human Sdc2. The assay can be described thus: Octet BLI, heading box over the sensorgram. On the procedure:
In order to characterize the binding affinity and in vivo/in vitro functional ability of the twelve clones generated by the previous studies and disclosed in Table 1, a series of assays were performed on each clone. These assays measured the affinity of each antibody clone for human, pig, and mouse Sdc2 using an Octet® binding assay system. Additionally, the functional ability of each clone to inhibit VEGFA-driven permeability (see Santiago, et al. (2021) J Am Heart Assoc. 10(18):e020521) was assessed in two therapeutic settings: a “prevention” study in which three concentrations of antibody (5 μg/ml, 10 μg/ml, 15 μg/ml, 20 μg/ml, and/or 40 μg/ml depending on the study) were pre-incubated for an hour before administration of 100 ng/ml of VEGFA, and a “treatment” study in which 3 hours of pre-treatment with 100 ng/ml VEGFA were followed by treatment with antibody at 20 μg/ml or 40 μg/ml. Results are shown for 8-G17 in FIG. 8 and FIG. 9, 20-H19-AB in FIG. 10 and FIG. 11 (FIG. 12 for monkey ECs), R3-P3-C11 in FIG. 13 and FIG. 14, R4M-P3-E06 in FIG. 15 and FIG. 16, R3-P3-E09 in FIG. 17 and FIG. 18, R3-P1-C02 in FIG. 19 and FIG. 20, R3-P3-A12 in FIG. 21 and FIG. 22, R4M-P3-A12 in FIG. 23 and FIG. 24, and R4M-P1-A10 in FIG. 25 and FIG. 26.

T1 sequence (P34741 19-144 limits assumed): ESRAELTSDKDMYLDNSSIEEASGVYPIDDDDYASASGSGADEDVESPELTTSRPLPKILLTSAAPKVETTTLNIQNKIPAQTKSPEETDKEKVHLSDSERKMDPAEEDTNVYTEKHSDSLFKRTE

B1: 6-N03-A (antibody, mouse IgG1, kappa, V domains shown)
VH: EVQLVESGGGLVKPGGSLKLSCEASGITFSNYVMSWVRQTPEKRLEWVATISDGGSYTYYPDNVKGRFTISRDNAKNNLYLQMSHLKSEDTAMYYCVRDRYDYDGRVYAMDYWGQGTSVTVSS
VL: DVVMTQTPLSLPVSLGDQASISCRSSQSLVHSNGDTYLHWYLQKPGQSPKLLIYKVSNRFSGVPDRFSGSGSGTDFTLKITRVEAEDLGVYFCSQSTHVPWTFGGGTKLEIKR
For the molecule B1, the “raw competing-Ab binding signal” value in the assay with human Sdc2 [1] was 0.0908; with human Sdc2 [2] it was 0.487; with human Sdc2 [3] it was 0.497; with human Sdc2 [4], 0.486; with human Sdc2 [5], 0.346; with human Sdc2 [6], -0.0492. For the same molecule, the “raw competing-Ab binding signal” value with human Sdc2 [7] was found to be 0.472; with human Sdc2 [8] it was 0.374; with human Sdc2 [10], 0.463; with human Sdc2 [11], 0.477; with human Sdc2 [12], 0.418; with human Sdc2 [13], 0.397. The “raw competing-Ab binding signal” value with human Sdc2 [14] came to 0.0812; with human Sdc2 [15] it was 0.0887; with human Sdc2 [16], 0.179; in the assay with human Sdc2 [17], 0.301; with human Sdc2 [18], 0.0194; in the assay with human Sdc2 [19], 0.422. This molecule also yielded a Kd with human Sdc2 [9] of 0.00117 µM. Also, the “% Inhibition of VEGFA-induced permeability at 24hrs (20ug/ml)” value (from here on “% Inhibition”) in assay [20] is 50%.

B2: 19838-6-N03-A (antibody, IgG1, V domains shown)
VH: B1 VH
VL: B1 VL
For the molecule B2, the “raw competing-Ab binding signal” value was 0.122 in the assay with human Sdc2 [1]; 0.501 with human Sdc2 [2]; 0.388 with human Sdc2 [3]; 0.48 in the assay with human Sdc2 [4]; 0.31 in the assay with human Sdc2 [5]; -0.0312 with human Sdc2 [6]. Moreover, the “raw competing-Ab binding signal” value with human Sdc2 [7] was 0.435; with human Sdc2 [21], 0.0058; in the assay with human Sdc2 [8] it was 0.336; with human Sdc2 [10], 0.463; with human Sdc2 [11], 0.413; in the assay with human Sdc2 [12] it was 0.326. The “raw competing-Ab binding signal” value amounted to 0.332 with human Sdc2 [13]; 0.0556 with human Sdc2 [14]; 0.0734 with human Sdc2 [15]; 0.162 with human Sdc2 [16]; 0.197 in the assay with human Sdc2 [17]; 0.378 with human Sdc2 [19].

B3: R3-P3-E09 (antibody, human IgG1, kappa, V domains shown)
VH: EVQLVETGGGVVQPGRSLTLSCGASEFTFSNYAMHWVRQAPGKGLEWVAVISYDGTKKYYGDSVKGRFTISRENIKNTLYLQMNSLRSEDTAVYYCARDVGKGVTATGTFDIWGQGTMVTVSS
VL: AIRMTQSPSSLSASVGDRVTITCRASQGIGSYLAWFQQKPGEAPKSLIIDATRLKSGVPSRFSGSGSGTEFALTISSLRPEDFATYYCQQYNVSPLTFGGGTKVEIKR
notes: human IgG1 kappa from the phage campaign
On to B3, for which the “raw competing-Ab binding signal” value turned out to be 0.337 in the assay with human Sdc2 [1]; 0.293 in the assay with human Sdc2 [2]; 0.307 in the assay with human Sdc2 [3]; 0.348 with human Sdc2 [4]; 0.397 in the assay with human Sdc2 [6]; 0.304 in the assay with human Sdc2 [7]. The “raw competing-Ab binding signal” value with human Sdc2 [21] was found to be 0.407; with human Sdc2 [8], 0.241; with human Sdc2 [10] it was 0.338; with human Sdc2 [11], 0.285; in the assay with human Sdc2 [12], 0.209; with human Sdc2 [13], 0.246. The “raw competing-Ab binding signal” value is 0.273 with human Sdc2 [14]; 0.151 with human Sdc2 [15]; -0.135 in the assay with human Sdc2 [16]; -0.138 with human Sdc2 [17]; 0.518 with human Sdc2 [18]; 0.376 with human Sdc2 [19]. For the same molecule, the Kd is 0.0177 µM with human Sdc2 [22], 0.0177 µM with human Sdc2 [9] and about 0.0177 µM with human Sdc2 [23]. Also, in the assay with human Sdc2 [22], the koff is 0.00908 s⁻¹. The molecule also showed a kon with human Sdc2 [22] of 513000 M⁻¹ s⁻¹. Also, in assay [20], the “% Inhibition” value was determined as 75%.

B4: TP-43327F (antibody, human IgG1, kappa, V domains shown)
VH: QVQLVESGGGVVQPGGSLRLSCAASGFTFNIYAMHWVRQAPGKGLEWVARIGSKSSYYATYYADSVKGRFTISRDNSKNTLYLQMNSLRTEDTAVYYCVSGKGDWGQGTLVTVSS
VL: DVVMTQSPLSLPVTLGQPASISCRSSQSLLAGDGKTYLNWFLQRPGQSPRRLIYLVSKLDSGVPDRFSGSGSGTDFTLKISRVEAEDVGVYYCWQGTHFPWTFGAGTRLEIKR
In turn, B4 returned a dissociation constant (Kd) in the assay with human Sdc2 [9] of under 0.0001 µM. In addition, in [20], the “% Inhibition” value came out at 100%.

B5: TP-43329F (antibody, human IgG1, kappa, V domains shown)
VH: B4 VH
VL: B4 VL with L42Q
B5 showed a Kd with human Sdc2 [9] of 0.0008 µM. The “% Inhibition” value in assay [20] worked out at 100%.
